The experiment addresses FtsQ_(50–276), P06136. Description: BLI. Conditions: chain shown with the change; GST-e5-FtsB (mutant) in complex with k5-FtsL immobilized; FtsQ analyte 0-60 µM; parent: 0.24 ± 0.01.

Broadly, the Kd is the concentration at which binding is half-saturated.

Sequence of FtsQ_(50–276), P06136 (P06136 50-276): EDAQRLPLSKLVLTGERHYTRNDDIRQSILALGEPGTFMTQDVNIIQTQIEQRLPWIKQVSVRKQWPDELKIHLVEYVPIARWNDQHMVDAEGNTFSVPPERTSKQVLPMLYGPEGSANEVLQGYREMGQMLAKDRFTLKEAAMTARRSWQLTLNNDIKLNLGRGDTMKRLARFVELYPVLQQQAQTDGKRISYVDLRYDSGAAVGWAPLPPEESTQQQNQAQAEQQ

B1: GST-fused e5-FtsB_(25–103)/k5-FtsL_(64–121) complex (WT), P0A6S5;P0AEN4 E68A (protein)
chain 1: GIHDYTRVNDDVAAQQATNAKLKARNDQLFAEIDDLNGGQEALAERARNELSMTRPGETFYRLVPDASKRAQSAGQNNR
chain 2: TAQREQLVLERDALDIEWRNLILEENALGDHSRVERIATEKLQMQHVDPSQENIVVQK
Take B1: the Kd was determined as 2400 nM.

(Values after PMC6305486.)
